# How the values were obtained:
# dendritic cells = assay: Activation marker expression on dendritic cells after LPS; type: cell-based, human; conditions: HLA-DR, CD11c, CD80, CD83; 200 pmol
# Description: The activity of DCR-2PBD on the upregulation of activation markers on DC was measured by incubating whole PBMC with DCR-2PBD or no antibody for […] before washing, followed by 12 hours of LPS stimulation. Control DC were not exposed to DCR-2PBD or LPS. Myeloid DC were gated out by excluding dead cells, Lin^+(CD3, CD20, CD19, CD56, CD14), then gating on HLA-DR^+ and CD11c^+ cells. The activation markers CD80 and CD83 were assessed via flow cytometry. The changes on activation were determined by comparing activated DC incubated with or without DCR-2PBD compared to inactivated DC.
# (§1) PBMC were incubated in complete RPMI media with or without DCR-2-PBD (200 pmol). After 12 hours, washed cells were incubated for a further 12 hours with or without LPS then phenotyped for the expression of activation markers on DC populations. MoDC were derived from CD14+ monocytes as described previously (Fromm et al. J Leukoc Biol. 2020; 107(2):323-339). DCR-2-PBD or isotype-PBD (200 pmol) were added for 72 hours prior to enumeration of live cells by flow cytometry.
# U937 cells = assay: U937 subcutaneous xenograft model in NSG mice; type: in vivo, mouse; conditions: for tumour growth compared to isotype-PBD (300 ug/kg): intraperitoneal, once
# Description: NOD.Cg-Prkdc^scld//2rg^tm1Wjl/SzJ (NSG) mice obtained from Australian BioResources were housed under specific pathogen free conditions. In the subcutaneous model, 2×10^6 U937 cells were injected under the skin on the right flank. Tumours were measured daily with electronic calipers. When the mean volume of the tumours was >100 mm^3, DCR-2-PBD, isotype-PBD or PBS was injected intraperitoneally once. […] Tumour volume was measured until >1000 mm^3 when mice were euthanised as required by the ethics protocol.
# In the flank injection model 2×10^6 U937 cells were injected subcutaneously into NSG mice and the subsequent tumors were measured daily via caliper to calculate the volume. Mice were injected with 150 ug/kg of DCR-2ADC, Isotype-ADC or an equal volume of PBS on day 6. Mice were euthanized once the volumes reached 1000 mm^3. Survival and tumor size was recorded.
# To determine the effect of DCR-2PBD in a mouse model based on U937 cells, mice were injected subcutaneously with cell line U937. After 6 days, mice were administered PBS, […] of CMRF-81PBD or […] of DCR-2PBD intraperitoneally and monitored for tumour growth. Tumour volume and survival of the mice were assessed and the results are shown in FIGS. 17 and 18, respectively.
# [1] = system: human HSPC and myeloid cells; assay: Humanised (CD34+ engrafted) NSG mouse model; type: in vivo; conditions: single dose 300 ug/kg, day 7
# Description: The humanised mouse model used frozen CD34^+ cells (>95% purity) isolated by positive selection (Miltenyi 130-046-702) according to the manufacturer's instructions from two pooled CB samples. Each NSG mouse was injected with 100,000 CD34+ cells 4 hours after receiving a 150cGy irradiation dose. Engraftment as determined by % human CD45+ cells in venous blood was assessed at 12 weeks. Mice were assigned to treatment groups to have similar means of human CD45+ percentage in the PB (10.16% DCR-2-PBD cohort and 10.74% isotype-PBD cohort). Mice were then injected with 300 ug/kg of DCR-2-PBD or isotype-PBD. Mice were euthanised on day 7 and human CD45+ cells from BM (bilateral femurs and tibias) and 300 μl blood were enumerated and phenotyped by flow cytometry.
# [2] = system: monocyte-derived dendritic cells (MoDC); assay: Monocyte-derived dendritic cell (MoDC) toxicity assay; type: cell-based, human; conditions: 200 pmol, 72 hours
# Description: as §1
# [3] = system: CD300f- lymphoma cell line Mino; assay: Bystander killing assay; type: cell-based
# Description: (§2) Kinetic analysis was performed as above.
# AML surface targets, including CD300f, can be heterogeneously expressed within AML cases and we considered bystander killing advantageous for an effective ADC. To determine whether DCR-2PBD effects cells not expressing CD300f, we investigated bystander killing by comparing the viability of the CD300f− lymphoma cell line Mino cultured on its own, with Mino cultured mixed with HL-60 in the presence of DCR-2-PBD in mixtures of 50% HL-60/50% Mino, and 25% HL-60/75% Mino. Cells were incubated for 96 hours with various concentrations of DCR-2PBD (FIG. 11). […] The reduction in the Mino cells when combined with HL-60 confirm the ability of DCR-2-PBD to generate bystander killing.
# HL-60 cell line = assay: Exposure time (kinetic) cytotoxicity on HL-60; type: cell-based
# Description: as §2
# The exposure time required for DCR-2-PBD to cause cytotoxicity on the HL-60 cell line was assessed and the results are shown in FIG. 10. The viability of HL-60 cells was reduced to less than 10% within 5 hours of exposure to DCR-2PBD. At 12 hours, greater than 98% of HL-60 proliferation was inhibited while at 24 and 96 hours inhibition was greater than 99%.
# HL-60 cells = assay: HL-60 leukemic xenograft model in NSG mice; type: in vivo, mouse
# Description: For the HL-60 leukemic model, NSG mice were irradiated with 200cGy 24 hours prior to intravenous administration of 5×10^6 HL-60 cells. On day 7, mice were injected with DCR-2-PBD, isotype-PBD or PBS and monitored for disease progression and survival. Mice were euthanised when their clinical score was ≥4 or on d70.
# On day 7, mice received a single injection of either PBS, or 300 μg/kg of CMRF-81PBD or DCR-2PBD, and their survival monitored.
# HL-60 = assay: Cytotoxicity assay on HL-60 AML cell line; type: cell-based
# Description: as §2
# (§3) DCR-2 and an isotype control mAb were conjugated to a PBD dimer toxin, to assess potential cytotoxicity. The cytotoxicity of DCR-2-PBD and the isotype-PBD were tested against CD300f+ and CD300f− cell lines and the results are shown in FIG. 6 and Table 2.
# THP-1 = assay: Cytotoxicity assay on THP-1 AML cell line; type: cell-based
# Description: as §2, §3
molecule,measurement,setting,value
DCR-2PBD: anti-CD300f mAb DCR-2 conjugated to pyrrolobenzodiazepine dimer via Cathepsin B-cleavable linker MA-PEG4-VA-PBD; drug to antibody ratio 3.3 (conjugate) VH: MESGGGLVQPGGPLKLSCAASGFGFSGSWMSWVRQAPGKGLEWIGQINPDSSTINYTPSLKDKFIISRDNAKNTLYLQINKVRSEDTALYYCARRGFFEGYSAWFAYW VL: ILMTQTPKFLLVSAGDRVTITCKASQSVSNDVAWYQQKPGQSPSLLIYYASNRNTGVPDRFTGSGYETDFTFTISTVQAEDLAVYFCQQDYTSPWTFGGG,up-regulation of activation markers on dendritic cells after LPS,dendritic cells,does not prevent up-regulation of activation markers
same,survival compared to isotype-PBD (300 ug/kg),U937 cells; 150 ug/kg (p=0.0017),significantly increased
same,tumour growth compared to isotype-PBD (300 ug/kg),U937 cells; 150 ug/kg,delayed
same,survival compared to isotype-PBD (300 ug/kg),U937 cells; 300 ug/kg (p=0.0017),significantly increased
same,tumour growth compared to isotype-PBD (300 ug/kg),U937 cells; 300 ug/kg,delayed
same,CD34+ cells as percentage of total human CD45+ cells,[1],3.09%
same,CD34+CD38-CD90+ cells as percentage of total human CD45+ cells,[1],0.16%
same,lymphocytes in the peripheral blood,[1],208.5 cells/μl
same,mean CD34+CD38-CD90+ cell count in BM,[1],0.05×10^4
same,myeloid cells in the peripheral blood,[1],0.31 cells/μl
same,effect on MoDC survival,[2],little effect
same,Mino viability vs Mino only control,"[3]; 25% HL-60/75% Mino, 25 pM, 96 hours (p=0.0002)",significant reduction in viability
same,Mino viability vs Mino only control,"[3]; 50% HL-60/50% Mino, 12.5 pM, 96 hours (p=0.0004)",significant reduction in viability
same,Mino viability vs Mino only control,"[3]; 50% HL-60/50% Mino, 25 pM, 96 hours (p<0.0001)",significant reduction in viability
same,HL-60 proliferation inhibited,HL-60 cell line; 12 hours exposure,greater than 98%
same,HL-60 proliferation inhibition,HL-60 cell line; 24 hours exposure,greater than 99%
same,HL-60 proliferation inhibition,HL-60 cell line; 96 hours exposure,greater than 99%
same,time dependent cytotoxicity,HL-60 cell line; incubation up to 96 hours,rapid cytotoxicity
same,viability of HL-60 cells,HL-60 cell line; within 5 hours of exposure,less than 10%
same,human cells in mice surviving until day 70,HL-60 cells; 300 ug/kg,No human cells could be detected
same,animals surviving to the experiment endpoint,"HL-60 cells; 300 ug/kg, endpoint day 70",Six of 8
same,survival compared to isotype-PBD,HL-60 cells; single injection 300 ug/kg on day 7 (p=0.0058),significantly increased survival
same,IC50,HL-60,0.00544 nM
same,IC50,THP-1,0.0294 nM

# Reference: patent US20220296727A1, “Immunoconjugate” (DendroCyte BioTech Pty Ltd, priority 2019, published 2022)
